The text below walks through data of patent publication US20260274985A1 (MYTHIC THERAPEUTICS, published 2026).

In assay [1] the target is T1, TROP2 on TROP2-positive NCI-H1975 cells (human, UniProt P09758 27-323).
T1 sequence: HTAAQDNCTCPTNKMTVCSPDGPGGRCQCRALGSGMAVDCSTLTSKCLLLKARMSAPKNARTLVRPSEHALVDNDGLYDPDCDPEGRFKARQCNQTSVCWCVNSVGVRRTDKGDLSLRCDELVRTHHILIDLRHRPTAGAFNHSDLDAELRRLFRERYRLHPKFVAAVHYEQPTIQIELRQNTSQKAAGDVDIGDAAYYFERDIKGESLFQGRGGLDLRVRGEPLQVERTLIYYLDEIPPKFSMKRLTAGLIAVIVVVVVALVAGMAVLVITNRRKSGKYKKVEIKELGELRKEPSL
Briefly: cell-based or functional assay.

Assay [2] has as its target T1, TROP2 on TROP2-positive NCI-H1975 cells. Briefly: binding to NCI-H1975 cells at pH 6.4, maximal MFI.
The target is the same in assay [3]. Briefly: cell-based or functional assay. This is another data set of the same source.
Assay [4] addresses T2, Human TROP2 Protein, His Tag (Acro Biosystems) (human, UniProt P09758 27-274).
T2 construct: also called TACSTD2; not shown: His tag
T2 sequence (looked up): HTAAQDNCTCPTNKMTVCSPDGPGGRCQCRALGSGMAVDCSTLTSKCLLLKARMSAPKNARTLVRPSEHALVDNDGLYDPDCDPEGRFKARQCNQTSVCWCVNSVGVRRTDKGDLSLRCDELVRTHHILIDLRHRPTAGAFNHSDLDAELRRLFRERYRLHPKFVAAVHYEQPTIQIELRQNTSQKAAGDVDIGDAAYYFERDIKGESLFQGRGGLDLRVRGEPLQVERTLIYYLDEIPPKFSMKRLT
Briefly: BLI (Octet) [1/2].

The target in assay [5] is T3, TROP2 on TROP2-positive NCI-H1975 cells (human, UniProt P09758 27-323).
T3 construct: whole, on cells
T3 sequence (looked up): T1 sequence
Kind of assay: binding to TROP2-positive NCI-H1975 cells at pH 7.4.

Assay [6] addresses T4, Human TROP2 Protein, His Tag (Acro Biosystems) (human, UniProt P09758 27-274).
T4 construct: not shown: His tag
T4 sequence (looked up): T2 sequence (looked up)
Kind of assay: Octet (BLI); antigen and pH not given.

For assay [7], the target named is T3, TROP2 on TROP2-positive NCI-H1975 cells. Kind of assay: binding to TROP2-positive NCI-H1975 cells at pH 6.7.
Assay [8] deals with T5, Human TROP2 Protein, His Tag (Acro Biosystems) (human, UniProt P09758 27-274).
T5 construct: Bought protein; not shown: His tag
T5 sequence (looked up): T2 sequence (looked up)
Briefly: BLI (Octet). For orientation: BLI is a label-free optical method that tracks binding on a fibre tip over time.

Changes are numbered by the printed parent chain.

B1: MYT11704 (antibody, human IgG1, V domains shown)
VH: QVQLQESGPGLVKPSETLSLTCTVSGGSISSYGVHWIRQPPGKGLEWIGVIWTSGVTDYNSALMGRVTISVDTSKNQFSLKLSSVTAADTAVYYCARDGDYDRYTMDYWGQGTLVTVSS
VL: DIVMTQSPDSLAVSLGERATINCRASKSVSTSGYSYMHWYQQKPGQPPKLLIYLASNLESGVPDRFSGSGSGTDFTLTISSLQAEDVAVYYCQHSRELPYTFGQGTKLEIK
notes: Human IgG1 heavy chain constant domain and Kappa light chain constant domain; also called hu7E6SVG WT; hu7E6SVG
B1: the “Cytotox Fold over datopotamab (FOD)” value in assay [1] is 1.22 fold over datopotamab. Besides, the “Max MFI (@ pH 6.4)-H1975” value in assay [2] worked out at 31500 MFI.

B2: MYT12459 (antibody, human IgG1, V domains shown)
VH: B1 VH
VL: B1 VL with E59H, Q93H, E97H
notes: Human IgG1 heavy chain constant domain and Kappa light chain constant domain; also called hu7E6SVG pH variant
In the case of B2, in assay [1], the “Cytotox Fold over datopotamab (FOD)” value amounted to 1.35 fold over datopotamab. In addition, the “Max MFI (@ pH 6.4)-H1975” value in assay [2] came out at 18700 MFI.

B3: MYT11614 (antibody, human IgG1, V domains shown)
VH: QVQLQQSGSELKKPGASVKVSCKASGYTFTNYGMNWVKQAPGQGLKWMGWINTYTGEPTYTDDFKGRFAFSLDTSVSTAYLQISSLKADDTAVYFCARGGFGSSYWYFDVWGQGSLVTVSS
VL: DIQLTQSPSSLSASVGDRVSITCKASQDVHIAVAWYQQKPGKAPKLLIYSASYRYTGVPDRFSGSGSGTDFTLTISSLQPEDFAVYYCQQHYITPLTFGAGTKVEIK
notes: Human IgG1 heavy chain constant domain and Kappa light chain constant domain; also called Sacituzumab LC variant
On to B3, for which the “Cytotox Fold over datopotamab (FOD)” value in assay [1] amounted to 1.35 fold over datopotamab. Besides, in assay [2], the “Max MFI (@ pH 6.4)-H1975” value came out at 19400 MFI.

B4: MYT13369 (antibody, human IgG1, V domains shown)
VH: B3 VH with D62H
VL: B3 VL with V33H
notes: also called sacituzumab HC-LC pairing variant
With B4, in assay [1], the “Cytotox Fold over datopotamab (FOD)” value worked out at 1.33 fold over datopotamab. Also, in assay [2], the “Max MFI (@ pH 6.4)-H1975” value is 17100 MFI. In assay [3], the “FOW H1975 (10 nM)” value turned out to be 1.44 fold over parent antibody.

B5: MYT13367 (antibody, V domains shown)
VH: B3 VH with G33H
VL: B3 VL with V33H
notes: Sacituzumab HC-LC pairing variant
For the molecule B5, the binding result in assay [4] is “binds”.

B6: MYT13375 (antibody, V domains shown)
VH: B3 VH with G33H
VL: B3 VL with A51H
notes: as for B5
Turning to B6, the binding result in assay [4] was “binds”.

B7: MYT11670 (antibody, human IgG1, V domains shown)
VH: QVQLVQSGAEVKKPGASVKVSCKASGYTFTTAGMQWVRQAPGQGLEWMGWINTHSGVPKYAEDFKGRVTISADTSTSTAYLQLSSLKSEDTAVYYCARSGFGSHYWYFDVWGQGTLVTVSS
VL: B3 VL with L4M, S20T, H30S, I31T, D60S, A100Q, V104L
notes: Human IgG1 heavy chain constant domain and Kappa light chain constant domain; also called Datopotamab pH variant
Regarding B7, the “Cytotox Fold over datopotamab (FOD)” value in assay [1] stood at 1.41 fold over datopotamab. Further, in assay [2], the “Max MFI (@ pH 6.4)-H1975” value worked out at 20000 MFI.

B8: MYT13380 (antibody, V domains shown)
VH: B3 VH with K65H
VL: B3 VL with A51H
notes: as for B5
In the case of B8, the binding result in assay [4] is reported as “binds”.

B9: MYT13428 (antibody, human IgG1, V domains shown)
VH: B3 VH with K65H
VL: B3 VL with A51H, I93H
notes: IgG; also called Sacituzumab HC-LC pairing variant
The IC50 is the concentration that gives 50% inhibition. As usually defined, the Kd is the concentration at which binding is half-saturated. A low value points to tighter binding. On to B9, for which the IC50 in assay [5] came to 1.56 nM. Also, in assay [6], the Kd was found to be 2.08 nM and the “Octet response at 33.33 nM (Y-Axis) nm” value came to 0.141 nm. The same molecule showed an IC50 in assay [7] of 8.29 nM.

B10: MYT11632 (antibody, V domains shown)
VH: B3 VH
VL: B3 VL with H30S, P95H
notes: Sacituzumab variant, His at LCV position 95 (L3 07)
As for B10, the binding result in assay [8] is reported as “binds”.

B11: MYT13394 (antibody, V domains shown)
VH: B3 VH with D63H
VL: B3 VL with H30S, V33H, Y53H
notes: as for B5
Consider B11, for which, in assay [4], the binding result was “binds”.

B12: MYT13384 (antibody, V domains shown)
VH: B3 VH with Y60H
VL: B3 VL with S52H
notes: as for B5
For the molecule B12, in assay [4], the binding result is given as “binds”.

B13: MYT11631 (antibody, V domains shown)
VH: B3 VH
VL: B3 VL with H30S, T94H
notes: Sacituzumab variant, His at LCV position 94 (L3 06)
On to B13, for which the binding result in assay [8] is on record as “binds”.

B14: MYT11626 (antibody, V domains shown)
VH: B3 VH
VL: B3 VL with H30S, Q89H
notes: Sacituzumab variant, His at LCV position 89 (L3 01)
Take B14: the binding result in assay [8] was “binds”.

B15: MYT13390 (antibody, V domains shown)
VH: B3 VH with Y32H
VL: B3 VL with H30S, V33H, Y53H
notes: as for B5
Turning to B15, in assay [4], the binding result was “binds”.

B16: MYT13396 (antibody, V domains shown)
VH: B3 VH with K65H
VL: B3 VL with H30S, V33H, Y53H
notes: as for B5
Consider B16, for which the binding result in assay [4] was “binds”.

B17: MYT11630 (antibody, V domains shown)
VH: B3 VH
VL: B3 VL with H30S, I93H
notes: Sacituzumab variant, His at LCV position 93 (L3 05)
Regarding B17, in assay [8], the binding result is reported as “binds”.

B18: MYT13381 (antibody, V domains shown)
VH: B3 VH with G66H
VL: B3 VL with A51H
notes: as for B5
Consider B18, for which the binding result in assay [4] was “binds”.

B19: MYT13391 (antibody, V domains shown)
VH: B3 VH with G33H
VL: B3 VL with H30S, V33H, Y53H
notes: as for B5
On to B19, for which the binding result in assay [4] was “binds”.

B20: MYT11629 (antibody, V domains shown)
VH: B3 VH
VL: B3 VL with H30S, Y92H
notes: Sacituzumab variant, His at LCV position 92 (L3 04)
For the molecule B20, the binding result in assay [8] is given as “binds”.

B21: MYT13425 (antibody, human IgG1, V domains shown)
VH: B3 VH with D62H
VL: B3 VL with A51H, I93H
notes: as for B9
B21 yielded an IC50 in assay [5] of 0.81 nM. In assay [6], the affinity, expressed as Kd, was 3.9 nM and the “Octet response at 33.33 nM (Y-Axis) nm” value was determined as 0.135 nm. The molecule also came in with an IC50 in assay [7] of 2.66 nM.

B22: MYT13427 (antibody, human IgG1, V domains shown)
VH: B3 VH with F64H
VL: B3 VL with A51H, I93H
notes: as for B9
With B22, the IC50 in assay [5] was 1 nM. Moreover, in assay [6], the Kd was 2.12 nM and the “Octet response at 33.33 nM (Y-Axis) nm” value was found to be 0.134 nm. In assay [7], this molecule had an IC50 of 4.39 nM.

B23: MYT13393 (antibody, V domains shown)
VH: B3 VH with D62H
VL: B3 VL with H30S, V33H, Y53H
notes: as for B5
Take B23: the binding result in assay [4] was “binds”.

B24: MYT11627 (antibody, V domains shown)
VH: B3 VH
VL: B3 VL with H30S, Q90H
notes: Sacituzumab variant, His at LCV position 90 (L3 02)
With B24, the binding result in assay [8] is given as “binds”.

B25: MYT11633 (antibody, V domains shown)
VH: B3 VH
VL: B3 VL with H30S, L96H
notes: Sacituzumab variant, His at LCV position 96 (L3 08)
In the case of B25, the binding result in assay [8] is “binds”.

B26: MYT11634 (antibody, V domains shown)
VH: B3 VH
VL: B3 VL with H30S, T97H
notes: Sacituzumab variant, His at LCV position 97 (L3 09)
For the molecule B26, in assay [8], the binding result is listed as “binds”.

B27: MYT11628 (antibody, V domains shown)
VH: B3 VH
VL: B3 VL with H30S, H91A
notes: Sacituzumab variant, Ala at LCV position 91 (L3 03; His in the parent)
Take B27: the binding result in assay [8] was “binds”.

B28: MYT13389 (antibody, V domains shown)
VH: B3 VH with G66H
VL: B3 VL with S52H
notes: as for B5
In the case of B28, in assay [4], the binding result is reported as “binds”.

B29: MYT13397 (antibody, V domains shown)
VH: B3 VH with G66H
VL: B3 VL with H30S, V33H, Y53H
notes: as for B5
For the molecule B29, the binding result in assay [4] is “binds”.
